Source: patent US20020025510A1, “Screening methods based on superactivated alpha V beta 3 integrin” (priority 2000, published 2002)
One block for each compound: values may come before it.

Columns and labels:
[1] = target: integrin αvβ3 modified by MT1-MMP, on β3/MT-MCF7 cells (human) (UniProt P06756); assay: cell-based or functional assay
[2] = target: integrin αvβ3 with the wild type β3 subunit, on β3-MCF7 cells (human) (UniProt P06756); assay: flow cytometry, β3-MCF7 cells stained with 5 µg/ml LM609, n=11
[3] = target: integrin αvβ3 modified by MT1-MMP, on β3/MT-MCF7 cells (human) (UniProt P06756); assay: flow cytometry, β3/MT-MCF7 cells stained with 5 µg/ml LM609, n=11
[4] = tested on: β3 integrin subunit; assay: Immunoprecipitation and Western blotting of the β3 integrin subunit from surface-biotinylated cells; type: cell-based, human; conditions: cells incubated with 50 μM for 48 hours; precipitated with mAb L230; 90 kDa without inhibitor
Description: Immunoprecipitation and Western blotting were performed as follows. Confluent cells were surface biotinylated with 0.1 mg/ml of Sulfo-NHS-LC-Biotin (Pierce, Rockford, Ill.). Where indicated, the cells were incubated prior to biotinylation with 50 μM Batimastat for 48 hours in AIM-V medium (GibcoBRL). Cells were solubilized at 10^7/ml in lysis buffer (50 mM n-octyl-(-D-glucopyranoside in 50 mM TBS, pH 7.4/1 mM CaCl2/1 mM MgCl2/1 mM PMSF/10 μg/ml leupeptin/10 μg/ml pepstatin) for one hr on ice. Insoluble material was removed by centrifugation. Supernatants were precleared for two hours at 4° C. with Protein A-Agarose (Calbiochem, La Jolla, Calif.). Precleared supernatants (100-150 μl) were incubated overnight at 4° C. with 3 μg of the indicated antibodies. The immune complexes were collected on Protein A-Agarose 15 μl of a 50% slurry) during a two hour incubation at room temperature. Following washes with washing buffer (50 mM Tris, pH 7.4/0.5 M NaCl/0.1% Tween 20), the beads were treated with 4% SDS in 125 mM Tris, pH 6.8/20% glycerol buffer, and boiled. […]

Chain of UniProt P06756 (P06756 31-1048 limits assumed, chain 1 of 2): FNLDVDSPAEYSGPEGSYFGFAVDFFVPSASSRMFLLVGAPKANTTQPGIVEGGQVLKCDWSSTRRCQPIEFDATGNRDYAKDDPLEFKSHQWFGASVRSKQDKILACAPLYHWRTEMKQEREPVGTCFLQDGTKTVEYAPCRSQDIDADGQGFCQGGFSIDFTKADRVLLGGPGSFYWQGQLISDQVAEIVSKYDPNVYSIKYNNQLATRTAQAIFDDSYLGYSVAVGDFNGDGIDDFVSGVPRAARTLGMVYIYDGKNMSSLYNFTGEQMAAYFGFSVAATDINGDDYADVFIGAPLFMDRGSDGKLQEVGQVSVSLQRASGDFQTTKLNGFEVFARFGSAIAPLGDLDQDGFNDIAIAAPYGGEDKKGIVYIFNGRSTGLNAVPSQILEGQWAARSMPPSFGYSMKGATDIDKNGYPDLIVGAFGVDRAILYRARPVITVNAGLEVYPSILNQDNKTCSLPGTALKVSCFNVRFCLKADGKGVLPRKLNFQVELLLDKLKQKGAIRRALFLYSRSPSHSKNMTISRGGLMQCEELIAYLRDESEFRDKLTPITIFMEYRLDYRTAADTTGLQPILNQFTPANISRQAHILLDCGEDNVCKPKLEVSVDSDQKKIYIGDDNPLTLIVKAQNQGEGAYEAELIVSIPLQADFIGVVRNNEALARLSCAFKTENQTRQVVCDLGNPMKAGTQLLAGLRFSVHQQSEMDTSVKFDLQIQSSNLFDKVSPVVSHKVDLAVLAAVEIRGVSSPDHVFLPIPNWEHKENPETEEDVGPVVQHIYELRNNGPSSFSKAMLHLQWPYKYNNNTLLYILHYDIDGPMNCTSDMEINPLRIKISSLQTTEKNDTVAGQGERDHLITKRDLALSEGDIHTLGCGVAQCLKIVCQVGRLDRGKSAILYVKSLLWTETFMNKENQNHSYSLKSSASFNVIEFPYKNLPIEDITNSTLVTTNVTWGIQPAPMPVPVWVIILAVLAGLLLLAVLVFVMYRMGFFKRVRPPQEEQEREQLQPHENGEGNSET
Chain of UniProt P06756 (chain, as listed by the source limits assumed, chain 2 of 2): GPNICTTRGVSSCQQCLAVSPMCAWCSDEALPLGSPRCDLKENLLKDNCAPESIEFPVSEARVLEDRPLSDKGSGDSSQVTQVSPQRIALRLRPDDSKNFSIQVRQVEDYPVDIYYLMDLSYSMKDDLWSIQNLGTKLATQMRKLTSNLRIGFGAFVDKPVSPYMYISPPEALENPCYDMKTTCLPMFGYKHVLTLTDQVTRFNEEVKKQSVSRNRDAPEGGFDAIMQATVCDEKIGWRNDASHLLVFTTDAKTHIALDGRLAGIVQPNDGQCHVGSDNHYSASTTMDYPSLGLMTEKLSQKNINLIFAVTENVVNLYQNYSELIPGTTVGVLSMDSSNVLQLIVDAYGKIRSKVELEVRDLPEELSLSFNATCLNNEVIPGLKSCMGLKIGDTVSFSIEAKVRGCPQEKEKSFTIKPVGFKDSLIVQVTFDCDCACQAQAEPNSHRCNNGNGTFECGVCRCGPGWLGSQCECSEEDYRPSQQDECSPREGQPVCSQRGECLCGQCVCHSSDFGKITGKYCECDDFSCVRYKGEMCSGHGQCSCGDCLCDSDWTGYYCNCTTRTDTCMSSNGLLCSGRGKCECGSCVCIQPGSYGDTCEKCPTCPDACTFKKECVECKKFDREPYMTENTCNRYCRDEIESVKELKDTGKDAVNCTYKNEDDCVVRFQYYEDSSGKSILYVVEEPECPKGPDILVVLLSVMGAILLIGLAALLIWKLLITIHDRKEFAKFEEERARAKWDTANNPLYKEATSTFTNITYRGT

- cells migrating to the vitronectin-coated membrane undersurface (Transwell, 48 hours) [1]: 23300 cells
Compound: vitronectin (from UniProt P04004 20-478) (ligand)

- mean fluorescence intensity [2]: 38.7
- mean fluorescence intensity [3]: 35.5
Compound: murine mAb LM609 specific to integrin αvβ3 (antibody)

Compound: CNC(=O)[C@H](Cc1ccccc1)NC(=O)[C@H](CC(C)C)[C@H](CSc1cccs1)C(=O)NO [Batimastat]
- Apparent molecular mass of the β3 integrin subunit from β3/MT-MCF7 cells [4]: 95 kDa
